From article PMC13596708
Like-named read-outs stand apart in the source and are kept apart here.

Experiments:
Experiment in all cases: AlphaScreen or HTRF
[1] = target: HIS-tagged BRD4 short isoform (BRD4-S), wild type (human) (UniProt O60885)
[2] = target: HIS-tagged BRD4 short isoform (BRD4-S), wild type (human) (UniProt O60885); remark: listed apart in the source
[3] = target: unmodified nucleosome (human | Xenopus laevis) (UniProt P04908)
[4] = target: H4 K12acK16ac nucleosome (human | Xenopus laevis) (UniProt P04908)
[5] = target: H4 K12acK16ac nucleosome (human | Xenopus laevis) (UniProt P04908); remark: listed apart in the source
[6] = target: H4 K12acK16ac nucleosome (human | Xenopus laevis) (UniProt P04908); remark: listed apart in the source
[7] = target: unmodified nucleosome (human | Xenopus laevis) (UniProt P04908); remark: listed apart in the source
[8] = target: H4 K12acK16ac nucleosome (human | Xenopus laevis) (UniProt P04908); remark: listed apart in the source
[9] = target: unmodified nucleosome (human | Xenopus laevis) (UniProt P04908); remark: listed apart in the source
[10] = target: H4 K12acK16ac nucleosome (human | Xenopus laevis) (UniProt P04908); remark: listed apart in the source
[11] = target: unmodified nucleosome (human | Xenopus laevis) (UniProt P04908); remark: listed apart in the source
[12] = target: H4 K12acK16ac nucleosome (human | Xenopus laevis) (UniProt P04908); remark: listed apart in the source
[13] = target: unmodified nucleosome (human | Xenopus laevis) (UniProt P04908); remark: listed apart in the source

Substance	IC50 [1] [nM]	IC50 after accounting for the 12 nucleosomes per array [1] [nM]	IC50 [2] [nM]	Kd [3] [nM]	Kd [4] [nM]	Kd [5] [nM]	Kd [6] [nM]	Kd [7] [nM]	Kd [8] [nM]	Kd [9] [nM]	Kd [10] [nM]	Kd [11] [nM]	Kd [12] [nM]	Kd [13] [nM]
12x nucleosome array, H4 K12acK16ac histones (from UniProt P04908 1-130; P06899 1-126; P62799 1-103) (complex)	1	12	2.4	–	–	–	–	–	–	–	–	–	–	–
12x nucleosome array, unmodified histones (from UniProt P04908 1-130; P06899 1-126) (complex)	3.3	40	1.3	–	–	–	–	–	–	–	–	–	–	–
HIS-tagged BRD4 short isoform (BRD4-S), wild type (from UniProt O60885-2 2-722) (natural protein)	–	–	–	43	12.2	37	18	71	26	100	42	37	8	6.6
